Data reported in patent US20240352105A1, “COMPOSITIONS AND METHODS FOR NEUTRALIZING ANTIGENS” (PACAGEN, INC, priority 2023, published 2024).
Values joined by “and” are separate entries in the source; they are usually repeats but may differ in a detail not shown here. Equal values may be shown once.

How the values were obtained:
[1] = tested on: biotinylated anti-His antibody; experiment: Recombinant Can f1-His ELISA binding assay
Experimental: In order to obtain single variable domain on heavy chain, i.e., VHH, specific for dog allergen Can f1, a recombinant His-tagged Can f1 was prepared, which reached high purity, as shown via SDS-Page Western blotting in FIG. 4. To confirm this, an ELISA was performed measuring optical density when the recombinant Can f1-His is incubated with a biotinylated anti-His antibody. As summarized in Table 4, the recombinant Can f1-His was effectively bound by the antibody.

[2] = tested on: known Der p2 antibody (clone 6OY4); experiment: Recombinant Der p2-His ELISA binding assay
Experimental: In order to obtain single variable domain on heavy chain, i.e., VHH, specific for dust mite allergen Der p2, a recombinant His-tagged Der p2 was prepared, which reached high purity, as shown via SDS-Page Western blotting in FIG. 2. To confirm this, an ELISA was performed. Briefly, the Der p2-HIS was coated onto an ELISA plate and a known Der p2 antibody (clone 6OY4) was added. A secondary detection antibody capable of binding to the Der p2 antibody was then added. The secondary detection antibody was conjugated to a horseradish peroxidase, which can be utilized to produce a colorimetric reaction. Then, optical density was measured. As summarized in Table 1, the recombinant Der p2-His was effectively bound by the antibody.

[3] = target: T1, recombinant His-tagged Can f1 (dog (Canis familiaris), UniProt O18873 19-174); experiment: ELISA, antigen coated
T1 construct: also called Can f1-His; recombinant Can f1; not shown: His tag
T1 sequence (O18873 19-174 limits assumed): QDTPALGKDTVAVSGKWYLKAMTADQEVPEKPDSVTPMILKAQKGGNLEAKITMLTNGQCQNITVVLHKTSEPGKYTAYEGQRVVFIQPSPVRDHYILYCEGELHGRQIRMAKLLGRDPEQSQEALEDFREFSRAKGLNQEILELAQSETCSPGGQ
Experimental: (§1) 2 microgram per milliliter (μg/mL) target antigen is coated in a 96-well plate and ELISA assay is performed after incubation with candidate VHHs. The binding EC50 of each clone is calculated using Prism GraphPad. The positive control antibody is involved as an internal control.
(§2) Isolated VHH clones were further validated by performing an ELISA assay as described in Example 1. Metrics of thermostability including melting temperature (Tₘ), onset temperature (Tₒₙₛₑₜ), and temperature of aggregation (Tagg), were also tested with increasing temperature in the range of 20° C.-95° C. at the speed of 1° C./min. The individual binding curves are shown for each candidate in FIGS. 5B-5H.

[4] = Thermostability (Tm, Tonset, Tagg) by Nanotemper DSF; format: physicochemical; design: key to Tm2 / Tagg / Tm1 / Tm / Tm3 / Tonset / Tonset ø (mean) / Tagg ø (mean): temperatures in °C; conditions: for Tm1: first melting point; for Tm2: second melting point
Experimental: as §2, with “(Tm),” for “(Tₘ),”, “(Tonset),” for “(Tₒₙₛₑₜ),”, “C./min. These measurements were performed using a Nanotemper DSF. When applicable, Tm1 refers to the first melting point observed, Tm2 refers to the second melting point observed, etc., Sequence information for the VHH clones and the binding assay results are summarized in Table 3.” for “C./min.”, “3B-3I.” for “5B-5H.”
Isolated VHH clones were further validated by performing an ELISA assay as described in Example 1. Metrics of thermostability including melting temperature (Tm), onset temperature (Tonset), and temperature of aggregation (Tagg), were also tested with increasing temperature in the range of 20° C.-95° C. at the speed of 1° C./min. The individual binding curves are shown for each candidate in FIGS. 5B-5H.
Isolated VHH clones were further validated by performing an ELISA assay as described in Example 1. Metrics of thermostability including melting temperature (Tm), onset temperature (Tonset), and temperature of aggregation (Tagg), were also tested with increasing temperature in the range of 20° C.-95° C. at the speed of 1° C./min. The individual binding curves are shown for each candidate in FIGS. 7B-7P.
The detailed thermostability graphs used to determine the Tm, Tonset, and Tagg are illustrated in FIGS. 19A-19I and raw data is summarized in Table 23. Any subsequent melting points observed (Tm1, Tm2, Tm3, etc.) are separated by commas.

[5] = tested on: biotinylated anti-His antibody; experiment: Recombinant Can f2-His ELISA binding assay
Experimental: In order to obtain single variable domain on heavy chain, i.e., VHH, specific for dog allergen Can f2, a recombinant His-tagged Can f2 was prepared, which reached high purity, as shown via SDS-Page Western blotting in FIG. 6. To confirm this, an ELISA was performed measuring optical density when the recombinant Can f2-His is incubated with a biotinylated anti-His antibody. As summarized in Table 7, the recombinant Can f2-His was effectively bound by the antibody.

[6] = target: T2, Fel D1 (Felis catus, UniProt P30438); experiment: ELISA binding assay of anti-Fel d1 VHH clones on Fel D1 epitopes; design: species or system cat; conditions: Epitope Recognized ENARILKNCVDAKM (SEQ ID NO: 61)
T2 construct: made in house; host or cells: chemically synthesized peptides
Experimental: as §1
Four distinct epitopes of Fel D1 were selected to be used for further identification. Peptides were synthesized for the four epitopes for VHH identification.
Isolated VHH clones were further validated by performing an ELISA assay as described in Example 1. Binding results are shown in FIG. 15B-15D for the epitope of SEQ ID NO: 61. Binding results are shown in FIG. 16 for the epitope of SEQ ID NO: 59. Binding results are shown in FIG. 17A-17E for the epitope of SEQ ID NO: 60. Binding results are shown in FIG. 18 for the epitope of SEQ ID NO: 58.

[7] = anti-Can f1 VHH, 20° C.-95° C. at 1° C./min
[8] = Average of two replicates, anti-Fel d1 VHH
[9] = Average of two replicates, anti-Fel d1 VHH, in °C (unit assumed)
[10] = Replicate 1, in °C (unit assumed)
[11] = Replicate 2, in °C (unit assumed)
[12] = anti-Fel d1 VHH, in °C (unit assumed)
[13] = anti-Can f1 VHH, in °C (unit assumed)

Can f1-His: recombinant His-tagged dog allergen Can f1
OD at 450 nm ([1]; Can f1-His Concentration 0.00064 μg/mL): 0.07 and 0.11
OD at 450 nm ([1]; Can f1-His Concentration 0.0032 μg/mL): 0.09 and 0.11
OD at 450 nm ([1]; Can f1-His Concentration 0.016 μg/mL): 0.09 and 0.12
OD at 450 nm ([1]; Can f1-His Concentration 0.08 μg/mL): 0.15 and 0.16
OD at 450 nm ([1]; Can f1-His Concentration 0.4 μg/mL): 0.21 and 0.24
OD at 450 nm ([1]; Can f1-His Concentration 2 μg/mL): 0.95 and 1.03
OD at 450 nm ([1]; Can f1-His Concentration 10 μg/mL): 2.84 and 2.92

B1: Der p2-His: recombinant His-tagged dust mite allergen Der p2 (protein)
chain: DQVDVKDCANHEIKKVLVPGCHGSEPCIIHRGKPFQLEAVFEANQNTKTAKIEIKASIDGLEVDVPGIDPNACHYMKCPLVKGQQYDIKYTWNVPKIAPKSENVVVTVKVMGDDGVLACAIATHAKIRD
modifications: left off: small tags and cut ends
OD at 450 nm ([2]; Der p2-His Concentration 0.00064 μg/mL): 0.07 and 0.09
OD at 450 nm ([2]; Der p2-His Concentration 0.0032 μg/mL): 0.09 and 0.10
OD at 450 nm ([2]; Der p2-His Concentration 0.016 μg/mL): 0.11 and 0.12
OD at 450 nm ([2]; Der p2-His Concentration 0.08 μg/mL): 0.38 and 0.35
OD at 450 nm ([2]; Der p2-His Concentration 0.4 μg/mL): 1.31 and 1.37
OD at 450 nm ([2]; Der p2-His Concentration 2 μg/mL): 4.06 and 4.02
OD at 450 nm ([2]; Der p2-His Concentration 10 μg/mL): 4.61 and 4.57

B2: SDAB22112-1-B6-B05 (VHH)
VHH: QLQLVESGGGLVQPGGSLRLSCAASRSIFSSYVMAWYRRAPGKKRELVASIANVGSNTDYASFAKGRFTISRDDDKSRDNDKITVYLQMNSLNPEDTAVYYCNAWLGAGSDYWGQGTQVTVSS
notes: anti-Can f1 alpaca VHH
EC50 [3]: 8.42 µg/mL

B3: SDAB22112-1-C9 (VHH)
VHH: QLQLVESGGGLVQPGGSLRLSCVGSGFTFSLASMGWYRQAPGKEREWVASISSLDASTNYADSVKGRFTISRDNAKRMVYLQMNNLKSEDTAVYYCKAMNYWGKGTQVTVSS
notes: anti-Can f1 alpaca VHH
EC50 [3]: 13.1 µg/mL

B4: SDAB22112-1-D12 (VHH)
VHH: AVQLVDSGGGLVQAGGSLRLACAASGRTFDTYAVGWFRQAPGKERDVVASITWTSGSTWYADFVKGRFTISKDNAKNTVYLQMNNLSPEDTAVYYCGARNQIYTRWDSWGQGTQVTVSS
notes: anti-Can f1 alpaca VHH
Tagg [4, 7]: 49.15
Tm ([4]; anti-Can f1 VHH, single melting point, in °C (unit assumed)): 57.78
EC50 [3]: 4.01 µg/mL

B5: Can f2-His: recombinant His-tagged dog allergen Can f2 (protein)
chain: QEGNHEEPQGGLEELSGRWHSVALASNKSDLIKPWGHFRVFIHSMSAKDGNLHGDILIPQDGQCEKVSLTAFKTATSNKFDLEYWGHNDLYLAEVDPKSYLILYMINQYNDDTSLVAHLMVRDLSRQQDFLPAFESVCEDIGLHKDQIVVLSDDDRCQGSRD
modifications: left off: small tags and cut ends
OD at 450 nm ([5]; Can f2-His Concentration 0.00064 μg/mL): 0.10 and 0.11
OD at 450 nm ([5]; Can f2-His Concentration 0.0032 μg/mL): 0.11
OD at 450 nm ([5]; Can f2-His Concentration 0.016 μg/mL): 0.10 and 0.11
OD at 450 nm ([5]; Can f2-His Concentration 0.08 μg/mL): 0.12 and 0.13
OD at 450 nm ([5]; Can f2-His Concentration 0.4 μg/mL): 0.22 and 0.19
OD at 450 nm ([5]; Can f2-His Concentration 2 μg/mL): 0.57 and 0.65
OD at 450 nm ([5]; Can f2-His Concentration 10 μg/mL): 1.12 and 1.07

B6: SDAB22110-1-1-B9-1: anti-Fel d1 VHH clone, SEQ ID NO: 50 (protein)
VHH: DVQLVESGGGWVQPGGSLRLSCAASGFTFTSYALSWVRQAPGKGLEWVSLADARGTSTTYADSVKGRFTISKDNPRNTLYLLMNSLKPEDTAVYYCTKGFDGNWYPDYDYWGQGTQVTVSS
Tagg ø (mean) [4, 8]: 41.73
Tonset ø (mean) [4, 8]: 42.07
Tm ø (mean), first melting point (Tm1) [4, 9]: 54.03
Tm ø (mean), second melting point (Tm2) [4, 9]: 63.20
Tagg ([4]; Replicate 1): 41.73
Tonset ([4]; Replicate 1): 42.11
Tm, first melting point (Tm1) [4, 10]: 53.95
Tm, second melting point (Tm2) [4, 10]: 63.26
Tagg ([4]; Replicate 2): 41.73
Tonset ([4]; Replicate 2): 42.04
Tm, first melting point (Tm1) [4, 11]: 54.10
Tm, second melting point (Tm2) [4, 11]: 63.15
Tagg ([4]; anti-Fel d1 VHH): 41.73
aggregates ([4]; anti-Fel d1 VHH): Possible
Tm1 [4, 12]: 54.03
Tm2 [4, 12]: 63.20
EC50 [6]: 14.440 µg/mL

B7: SDAB22112-2-B06 (VHH)
VHH: QVQLVESGGGLVQPGGSLRLSCAASGFTFRLAAMGWYRQAPEKEREWVASITGPGTDTNYADSVKGRFTVSRDNAKNTVYLQMNSLKPEDTAVYYCRGMGYWGKGTLVTVSS
notes: anti-Can f1 alpaca VHH
Tagg [4, 7]: 48.00
Tm1 [4, 13]: 56.38
Tm2 [4, 13]: 63.74
Tm3 ([4]; anti-Can f1 VHH, third melting point, in °C (unit assumed)): 70.13
EC50 [3]: 0.144 µg/mL
